From patent EP1073891B1, “METHOD OF PREDICTING RECEPTOR MODULATING ACTIVITY” (Duke University, priority 1998, dated 1999)

Legend:
Assay type in all cases: cell-based
[1] = target: T1, ERα-VP16 (Homo sapiens, UniProt P03372); test: Mammalian two-hybrid in HepG2 cells, Gal4-peptide fusions, luciferase reporter (Example 4.1); conditions: Gal4-peptide fusion, various ligands (Fig. 7)
T1 construct: expressed in transfected cells; host or cells: HepG2
T1 sequence (P03372 1-595): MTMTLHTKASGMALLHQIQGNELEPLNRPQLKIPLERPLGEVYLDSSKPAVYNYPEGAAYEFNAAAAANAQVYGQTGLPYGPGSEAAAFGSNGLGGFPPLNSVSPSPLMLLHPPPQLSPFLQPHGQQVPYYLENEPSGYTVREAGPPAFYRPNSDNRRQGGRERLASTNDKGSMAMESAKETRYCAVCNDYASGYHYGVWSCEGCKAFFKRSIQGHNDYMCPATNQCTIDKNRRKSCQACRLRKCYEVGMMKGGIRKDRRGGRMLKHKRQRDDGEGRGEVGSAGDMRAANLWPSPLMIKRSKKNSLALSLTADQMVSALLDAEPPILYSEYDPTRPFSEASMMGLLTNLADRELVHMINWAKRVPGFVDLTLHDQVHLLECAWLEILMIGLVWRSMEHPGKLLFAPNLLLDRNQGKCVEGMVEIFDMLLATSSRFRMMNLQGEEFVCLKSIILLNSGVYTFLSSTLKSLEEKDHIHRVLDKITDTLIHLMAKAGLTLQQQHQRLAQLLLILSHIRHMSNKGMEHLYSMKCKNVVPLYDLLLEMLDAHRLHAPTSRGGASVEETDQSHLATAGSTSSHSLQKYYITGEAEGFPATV
Excerpt: (§1) Peptide sequences representing each class was fused to the DNA binding domain (DBD) of the yeast transcription factor Ga14. HepG2 cells were then transiently transfected with expression vectors for ERα-VP16 and the Gal4-peptide fusion proteins. In addition, a luciferase reporter construct under the control of 5 copies of a Ga14 upstream enhancer element was also transfected along with a pCMV-β galactosidase vector to normalize for transfection efficiency. Transfection of the Ga14 DBD alone is included as control. Cells were then induced with various ligands as indicated in the figure and assayed for luciferase activity and β galactosidase activity. Normalized response was obtained by dividing the luciferase activity by the β galactosidase activity.

[2] = target: T2, glucocorticoid receptor (GR-VP16) (Homo sapiens, UniProt P04150); test: Mammalian two-hybrid, specificity of peptide-nuclear receptor interaction (Example 4.2); conditions: mammalian two-hybrid (Fig. 8)
T2 construct: expressed in transfected cells
T2 sequence (P04150 1-777): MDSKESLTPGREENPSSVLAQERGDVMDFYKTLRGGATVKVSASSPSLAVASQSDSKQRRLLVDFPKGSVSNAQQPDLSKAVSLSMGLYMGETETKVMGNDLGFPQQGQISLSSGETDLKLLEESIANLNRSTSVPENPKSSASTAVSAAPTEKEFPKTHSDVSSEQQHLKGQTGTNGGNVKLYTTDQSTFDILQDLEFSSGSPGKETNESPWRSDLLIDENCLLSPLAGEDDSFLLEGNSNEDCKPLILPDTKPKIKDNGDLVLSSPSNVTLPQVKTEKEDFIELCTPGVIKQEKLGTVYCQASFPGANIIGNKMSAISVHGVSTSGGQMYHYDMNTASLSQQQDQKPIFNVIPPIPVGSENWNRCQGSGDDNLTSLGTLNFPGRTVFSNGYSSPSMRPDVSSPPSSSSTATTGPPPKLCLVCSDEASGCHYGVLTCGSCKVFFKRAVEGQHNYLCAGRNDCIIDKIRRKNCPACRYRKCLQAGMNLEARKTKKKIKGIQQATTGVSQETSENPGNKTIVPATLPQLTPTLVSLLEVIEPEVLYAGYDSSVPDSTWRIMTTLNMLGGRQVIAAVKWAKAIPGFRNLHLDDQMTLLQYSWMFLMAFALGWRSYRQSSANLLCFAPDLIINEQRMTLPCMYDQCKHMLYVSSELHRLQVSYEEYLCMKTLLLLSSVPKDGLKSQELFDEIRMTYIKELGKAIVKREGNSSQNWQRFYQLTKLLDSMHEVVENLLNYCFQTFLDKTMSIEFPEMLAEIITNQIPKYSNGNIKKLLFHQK
Excerpt: as §1
(§2) The specificity of peptide-nuclear receptor interaction was analyzed (Fig. 8) using the mammalian two-hybrid system. Experimental design is the same as in figure 2 except that either progesterone receptor (PRB-VP16), estrogen receptor beta (ERβ-VP16), glucocorticoid receptor (GR-VP16) or thyroid receptor beta (TRβ-VP16) was tested.

[3] = target: T3, estrogen receptor beta (ERβ-VP16) (Homo sapiens, UniProt Q92731); test: as above; conditions: mammalian two-hybrid (Fig. 8)
T3 construct: expressed in transfected cells
Excerpt: as §1, §2

[4] = target: T4, thyroid receptor beta (TRβ-VP16) (Homo sapiens, UniProt P10828); test: as above; conditions: mammalian two-hybrid (Fig. 8)
T4 construct: expressed in transfected cells
T4 sequence (P10828 1-461): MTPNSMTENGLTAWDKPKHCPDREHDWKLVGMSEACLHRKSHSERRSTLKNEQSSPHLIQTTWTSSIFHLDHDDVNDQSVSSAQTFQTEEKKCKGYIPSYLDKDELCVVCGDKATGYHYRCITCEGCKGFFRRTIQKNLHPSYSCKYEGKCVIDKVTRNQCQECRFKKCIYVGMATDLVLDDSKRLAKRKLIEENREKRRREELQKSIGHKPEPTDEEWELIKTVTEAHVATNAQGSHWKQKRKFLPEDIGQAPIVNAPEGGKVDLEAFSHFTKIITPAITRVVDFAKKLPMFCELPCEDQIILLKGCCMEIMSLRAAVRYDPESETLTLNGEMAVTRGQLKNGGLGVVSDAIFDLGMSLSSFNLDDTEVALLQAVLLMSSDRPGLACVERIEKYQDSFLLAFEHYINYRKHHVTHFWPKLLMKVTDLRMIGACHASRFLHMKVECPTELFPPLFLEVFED
Excerpt: as §1, §2

T3 sequence (Q92731 whole entry, species assumed): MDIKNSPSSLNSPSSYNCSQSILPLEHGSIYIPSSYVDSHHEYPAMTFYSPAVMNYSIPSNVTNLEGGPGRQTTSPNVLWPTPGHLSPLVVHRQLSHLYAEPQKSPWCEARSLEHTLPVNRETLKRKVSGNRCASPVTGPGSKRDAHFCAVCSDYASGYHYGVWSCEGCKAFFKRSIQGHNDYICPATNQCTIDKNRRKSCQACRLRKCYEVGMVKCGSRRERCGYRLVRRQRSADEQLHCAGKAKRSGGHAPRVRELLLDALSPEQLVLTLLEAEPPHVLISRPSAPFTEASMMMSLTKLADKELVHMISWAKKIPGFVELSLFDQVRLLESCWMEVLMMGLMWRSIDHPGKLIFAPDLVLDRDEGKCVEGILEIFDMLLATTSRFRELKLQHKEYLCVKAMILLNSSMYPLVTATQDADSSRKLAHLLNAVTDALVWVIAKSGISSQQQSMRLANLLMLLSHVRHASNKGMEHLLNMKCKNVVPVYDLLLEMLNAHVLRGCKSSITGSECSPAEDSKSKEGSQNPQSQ

Row | Sequence | interaction with ERα (normalized luciferase response) [1] | interaction with GR [2] | interaction with ERβ [3] | interaction with TRβ [4]
1 | SSLTSRDFGSWYASR [α II] | interacts with the receptor under all conditions with the apo-receptor and ICI 182,780 bound receptor showing the least activity | None of the receptors tested interact significantly | None of the receptors tested interact significantly | None of the receptors tested interact significantly
2 | SSNHQSSRLIELLSR [α/β I] | interacts with ER in the presence of estradiol and somewhat with the apo-receptor | interact with the αβ I peptide in the presence of the appropriate agonist | interact with the αβ I peptide in the presence of the appropriate agonist | interact with the αβ I peptide in the presence of the appropriate agonist
3 | SSPGSREWFKDMLSR [α/β V] | interact almost exclusively with the tamoxifen bound receptor |  | bound ERβ only in the presence of tamoxifen | 
4 | SSWDMHQFFWEGVSR [α/β III] | interact almost exclusively with the tamoxifen bound receptor | None of the receptors tested interact significantly | None of the receptors tested interact significantly | None of the receptors tested interact significantly
